The results in this text go back to US20250368745A1 (published 2025).

Positions count from the first letter of the chain named. Numbers in names are those of the source.

First the molecules themselves.
T1: cynomolgus IL-18BP (cynomolgus monkey)
T1 construct: also called cyno IL-18BP; cyIL-18BP
T1 chain: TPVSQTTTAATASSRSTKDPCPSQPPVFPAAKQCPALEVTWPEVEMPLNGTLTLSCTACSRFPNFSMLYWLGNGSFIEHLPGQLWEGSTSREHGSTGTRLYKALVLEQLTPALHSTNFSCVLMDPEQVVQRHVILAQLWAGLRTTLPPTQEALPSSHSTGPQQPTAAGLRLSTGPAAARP

T2: human IL-18BP (human, UniProt O95998 31-194)
T2 construct: UniProt printed as 095998; also called hIL-18BP
T2 sequence: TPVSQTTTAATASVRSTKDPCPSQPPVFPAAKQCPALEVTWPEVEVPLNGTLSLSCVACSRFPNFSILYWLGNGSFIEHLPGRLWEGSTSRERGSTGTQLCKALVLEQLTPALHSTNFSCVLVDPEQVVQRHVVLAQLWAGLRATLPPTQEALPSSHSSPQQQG

T3: human IL-18BP (interleukin-18 binding protein, isoform A) (human, UniProt O95998 31-194)
T3 construct: cell assays used Sino Biological 10357-H08H; PBMC assay 1 relies on endogenous IL-18BP; UniProt number is printed as 095998; also called hIL-18BP
T3 sequence: T2 sequence

T4: cynomolgus IL-18BP (cynomolgus monkey)
T4 construct: Generated in-house; also called cyIL-18BP; cyno IL-18BP
T4 chain: T1 chain

B1: SA301a HC-Y50P (antibody, name in Kabat numbering, V domains shown)
VH: QVQLQESGPGLVKPSQTLSLTCTVSGYSITSDYNSHWIRQPPGKGLEWIGPIHYSGSTNYNPSLKSRVTISRDTSKNQFSLKLSSVTAADTAVYYCARNYGSIYVNYFDYWGQGTLVTVSS
VL: EIVLTQSPATLSLSPGERATLSCSASSSVSYMYWYQQKPGQAPRPLIYRTSNLASGIPARFSGSGSGTDFTLTISSLEPEDFAVYYCQQYHSYPTFGGGTKVEIK
notes: IgG1 kappa
B2: SA301a HC-Y50K (antibody, name in Kabat numbering, V domains shown)
VH: B1 VH with P51K
VL: B1 VL
notes: IgG1 kappa
B3: SA301a HC-Y50L (antibody, name in Kabat numbering, V domains shown)
VH: B1 VH with P51L
VL: B1 VL
notes: IgG1 kappa
B4: SA301a HC-Y50H (antibody, name in Kabat numbering, V domains shown)
VH: B1 VH with P51H
VL: B1 VL
notes: IgG1 kappa
B5: SA301a HC-Y50S (antibody, name in Kabat numbering, V domains shown)
VH: B1 VH with P51S
VL: B1 VL
notes: IgG1 kappa
B6: SA301a HC-Y50I (antibody, name in Kabat numbering, V domains shown)
VH: B1 VH with P51I
VL: B1 VL
notes: IgG1 kappa
B7: SA301a HC-Y50R (antibody, name in Kabat numbering, V domains shown)
VH: B1 VH with P51R
VL: B1 VL
notes: IgG1 kappa
B8: SA301a HC-Y50V (antibody, name in Kabat numbering, V domains shown)
VH: B1 VH with P51V
VL: B1 VL
notes: IgG1 kappa
B9: SA301a HC-Y50Q (antibody, name in Kabat numbering, V domains shown)
VH: B1 VH with P51Q
VL: B1 VL
notes: IgG1 kappa
B10: SA301a HC-Y50G (antibody, name in Kabat numbering, V domains shown)
VH: B1 VH with P51G
VL: B1 VL
notes: IgG1 kappa
B11: SA301a HC-Y50F (antibody, name in Kabat numbering, V domains shown)
VH: B1 VH with P51F
VL: B1 VL
notes: IgG1 kappa
B12: SA301a HC-Y50M (antibody, name in Kabat numbering, V domains shown)
VH: B1 VH with P51M
VL: B1 VL
notes: IgG1 kappa
B13: heavy chain library variant C34P (antibody, V domains shown)
VH: B1 VH with S35P, P51Y
VL: B1 VL
B14: heavy chain library variant C34E (antibody, V domains shown)
VH: B1 VH with S35E, P51Y
VL: B1 VL
B15: heavy chain library variant C34R (antibody, V domains shown)
VH: B1 VH with S35R, P51Y
VL: B1 VL
B16: SA301a heavy chain variant N33bL, C34S (antibody, human IgG1, V domains shown)
VH: B1 VH with N34L, P51Y
VL: B1 VL
notes: library variant, human IgG1/kappa, from supernatant
B17: SA301a heavy chain variant N33bP, C34S (antibody, human IgG1, V domains shown)
VH: B1 VH with N34P, P51Y
VL: B1 VL
notes: as for B16
B18: SA301a heavy chain variant N33bT, C34S (antibody, human IgG1, V domains shown)
VH: B1 VH with N34T, P51Y
VL: B1 VL
notes: as for B16
B19: SA301a heavy chain variant N33bE, C34S (antibody, human IgG1, V domains shown)
VH: B1 VH with N34E, P51Y
VL: B1 VL
notes: as for B16
B20: SA302a heavy chain variant N33bT, C34A (antibody, human IgG1, V domains shown)
VH: B1 VH with N34T, S35A, P51Y
VL: B1 VL
notes: as for B16
B21: SA302a heavy chain variant N33bF, C34A (antibody, human IgG1, V domains shown)
VH: B1 VH with N34F, S35A, P51Y
VL: B1 VL
notes: as for B16
B22: SA302a heavy chain variant N33bI, C34A (antibody, human IgG1, V domains shown)
VH: B1 VH with N34I, S35A, P51Y
VL: B1 VL
notes: as for B16
B23: SA301a heavy chain variant N33bY, C34S (antibody, human IgG1, V domains shown)
VH: B1 VH with N34Y, P51Y
VL: B1 VL
notes: as for B16
B24: SA302a heavy chain variant N33bK, C34A (antibody, human IgG1, V domains shown)
VH: B1 VH with N34K, S35A, P51Y
VL: B1 VL
notes: as for B16
B25: SA301a heavy chain variant N33bM, C34S (antibody, human IgG1, V domains shown)
VH: B1 VH with N34M, P51Y
VL: B1 VL
notes: as for B16
B26: SA301a heavy chain variant N33bQ, C34S (antibody, human IgG1, V domains shown)
VH: B1 VH with N34Q, P51Y
VL: B1 VL
notes: as for B16
B27: SA302a heavy chain variant N33bQ, C34A (antibody, human IgG1, V domains shown)
VH: B1 VH with N34Q, S35A, P51Y
VL: B1 VL
notes: as for B16
B28: SA301a heavy chain variant N33bS, C34S (antibody, human IgG1, V domains shown)
VH: B1 VH with N34S, P51Y
VL: B1 VL
notes: as for B16
B29: SA301a heavy chain variant N33bK, C34S (antibody, human IgG1, V domains shown)
VH: B1 VH with N34K, P51Y
VL: B1 VL
notes: as for B16
B30: SA301a heavy chain variant N33bV, C34S (antibody, human IgG1, V domains shown)
VH: B1 VH with N34V, P51Y
VL: B1 VL
notes: as for B16
B31: SA302a heavy chain variant N33bH, C34A (antibody, human IgG1, V domains shown)
VH: B1 VH with N34H, S35A, P51Y
VL: B1 VL
notes: as for B16
B32: SA301a heavy chain variant N33bG, C34S (antibody, human IgG1, V domains shown)
VH: B1 VH with N34G, P51Y
VL: B1 VL
notes: as for B16
B33: SA302a heavy chain variant N33bM, C34A (antibody, human IgG1, V domains shown)
VH: B1 VH with N34M, S35A, P51Y
VL: B1 VL
notes: as for B16
B34: heavy chain library variant C34N (antibody, V domains shown)
VH: B1 VH with S35N, P51Y
VL: B1 VL
notes: position 34 variant, human IgG1/kappa, from supernatant; C is the SA44a residue
B35: SA301a heavy chain variant N33bD, C34S (antibody, human IgG1, V domains shown)
VH: B1 VH with N34D, P51Y
VL: B1 VL
notes: as for B16

The first experiment concerns the target T1, cynomolgus IL-18BP. Description: BLI, apparent KD. For orientation: In BLI a coated tip is dipped into the sample, and binding shifts an interference pattern.
On to B1, for which the Kd was 4.49 nM. On the same count and under the same terms, as for B2, the figure is 2.43 nM; as for B3, 1.7 nM; as for B4, 3.87 nM. On to B5, for which the Kd is 2.48 nM. For the molecule B6, the Kd was found to be 6.42 nM. Same read-out and setting: as for B7, the figure is 4.98 nM. On the same count and under the same terms, the same measure for B8: 10.2 nM. As to B9, the Kd stood at 1.12 nM.

On to B10, for which the Kd came out at 2.85 nM. B11: the Kd came to 1.81 nM. Still for that read-out and setting: the same measure for B12: 1.8 nM.

In the next experiment the target is T2, human IL-18BP. Briefly: BLI, apparent KD.
For B1, the Kd was 1.08 nM. With B2, the Kd is 1.08 nM. Regarding B3, the Kd is 2.56 nM. B4: the Kd came out at 1.87 nM. Regarding B5, the Kd turned out to be 2.17 nM.

Consider B6, for which the Kd came out at 3.37 nM. As for B7, the Kd amounted to 1.19 nM. Same read-out and setting: the same measure for B8: 1.96 nM; for B9: 1.13 nM.

On to B10, for which the Kd was 1.03 nM. In the case of B11, the Kd came out at 2.18 nM. Consider B12, for which the Kd was 2.06 nM.

In the next experiment the target is T3, human IL-18BP (interleukin-18 binding …). Description: BLI single-concentration screen, apparent KD.
As to B13, the Kd stood at 20.6 nM. As for B14, the Kd was 0.9 nM. With B15, the Kd stood at 1.8 nM. For the molecule B16, the Kd came out at 0.8 nM. Regarding B17, the Kd was 2.5 nM.

For B18, the Kd is 0.3 nM. For B19, the Kd came out at 0.1 nM. For the molecule B20, the Kd was determined as 0.1 nM. Take B21: the Kd is 1.5 nM. On the same count and under the same terms, the same measure for B22: 0.6 nM. Same read-out and setting: as for B23, the figure is 1.2 nM. Take B24: the Kd came to 0.3 nM. The same measure, in the same setting: as for B25, the figure is 1.9 nM; as for B26, 1.9 nM. Turning to B27, the Kd was found to be 1.8 nM. The same measure, in the same setting: as for B28, the figure is 1.4 nM; as for B29, 0.4 nM; as for B30, 0.4 nM. Regarding B31, the Kd is 0.8 nM. On to B32, for which the Kd was found to be 0.2 nM.

With B33, the Kd amounted to 0.9 nM. Consider B34, for which the Kd was found to be 1 nM.

A further experiment addresses T4, cynomolgus IL-18BP. Description: BLI single-concentration screen, apparent KD.
In the case of B35, the Kd was 0.1 nM. As for B13, the Kd stood at 9.8 nM. Consider B14, for which the Kd stood at 0.5 nM. Consider B15, for which the Kd amounted to 0.6 nM. For B16, the Kd is 0.6 nM.

Regarding B17, the Kd stood at 1.3 nM. On the same count and under the same terms, the same measure for B18: 0.4 nM; for B19: 0.2 nM. Same read-out and setting: as for B20, the figure is 0.3 nM; as for B21, 1.4 nM. Take B22: the Kd turned out to be 0.4 nM. Regarding B23, the Kd came out at 0.9 nM.

Turning to B24, the Kd is 0.4 nM. The same measure, in the same setting: the same measure for B25: 1.4 nM; for B26: 1.1 nM. For B27, the Kd came out at 1.6 nM. As to B28, the Kd was determined as 1 nM. B29: the Kd came to 0.9 nM. As for B30, the Kd came out at 0.3 nM.

In the case of B31, the Kd was found to be 0.6 nM. In the case of B32, the Kd came to 0.5 nM.

Consider B33, for which the Kd amounted to 1 nM. Take B34: the Kd was found to be 0.6 nM.
